This passage reports Kd results from PMC2172130.

The target in this test is tomosyn (expressed in Sf9 cells) (UniProt Q9WU70). As to the kind of experiment: far-Western, overlay or dot blot.
Chain of UniProt Q9WU70 (Q9WU70 whole entry): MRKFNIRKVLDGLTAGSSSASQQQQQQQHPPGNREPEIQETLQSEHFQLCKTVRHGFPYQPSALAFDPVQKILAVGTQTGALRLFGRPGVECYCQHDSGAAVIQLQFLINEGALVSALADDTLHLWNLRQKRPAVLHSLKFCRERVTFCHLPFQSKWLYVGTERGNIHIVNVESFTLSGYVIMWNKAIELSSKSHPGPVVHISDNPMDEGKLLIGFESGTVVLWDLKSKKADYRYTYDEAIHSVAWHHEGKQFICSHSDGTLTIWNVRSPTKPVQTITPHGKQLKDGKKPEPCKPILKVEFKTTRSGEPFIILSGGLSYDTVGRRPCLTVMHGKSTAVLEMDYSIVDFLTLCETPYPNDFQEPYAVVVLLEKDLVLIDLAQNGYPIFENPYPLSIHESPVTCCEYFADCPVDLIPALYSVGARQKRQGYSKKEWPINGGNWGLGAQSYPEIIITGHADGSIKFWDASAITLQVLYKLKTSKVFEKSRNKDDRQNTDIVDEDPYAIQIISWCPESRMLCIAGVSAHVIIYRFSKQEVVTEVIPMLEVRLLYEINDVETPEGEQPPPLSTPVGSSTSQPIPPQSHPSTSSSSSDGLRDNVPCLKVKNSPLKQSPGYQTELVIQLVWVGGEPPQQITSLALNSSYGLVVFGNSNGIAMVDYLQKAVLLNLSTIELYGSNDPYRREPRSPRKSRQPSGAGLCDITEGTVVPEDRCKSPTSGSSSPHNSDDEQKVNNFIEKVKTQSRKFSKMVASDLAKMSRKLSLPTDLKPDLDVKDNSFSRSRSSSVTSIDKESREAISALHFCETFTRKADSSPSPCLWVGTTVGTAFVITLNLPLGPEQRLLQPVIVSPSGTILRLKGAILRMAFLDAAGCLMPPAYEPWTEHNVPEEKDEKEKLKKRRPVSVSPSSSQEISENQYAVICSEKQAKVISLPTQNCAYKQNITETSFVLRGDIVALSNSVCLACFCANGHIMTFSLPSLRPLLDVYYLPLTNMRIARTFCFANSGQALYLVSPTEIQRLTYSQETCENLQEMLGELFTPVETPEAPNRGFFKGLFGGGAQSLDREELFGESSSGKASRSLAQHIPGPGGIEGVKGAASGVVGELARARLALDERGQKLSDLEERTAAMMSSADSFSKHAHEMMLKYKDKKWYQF

“syntaxin-1, nonphosphorylated form (recombinant) (from UniProt P32851 1-288) (natural protein)” came in with a dissociation constant (Kd) of 120 nM.

Broadly, the Kd is the concentration at which binding is half-saturated. A high value points to lower affinity.
